{
  "source": "IntAct's records for PubMed 31515488",
  "parents": {"B1": {"name": "Actin filament-associated protein 1-like 1 (Homo sapiens), Q8TED9 (parent)", "chain": "MDRGQVLEQLLPELTGLLSLLDHEYLSDTTLEKKMAVASILQSLQPLPAKEVSYLYVNTADLHSGPSFVESLFEEFDCDLSDLRDMPEDDGEPSKGASPELAKSPRLRNAADLPPPLPNKPPPEDYYEEALPLGPGKSPEYISSHNGCSPSHSIVDGYYEDADSSYPATRVNGELKSSYNDSDAMSSSYESYDEEEEEGKSPQPRHQWPSEEASMHLVRECRICAFLLRKKRFGQWAKQLTVIREDQLLCYKSSKDRQPHLRLALDTCSIIYVPKDSRHKRHELRFTQGATEVLVLALQSREQAEEWLKVIREVSKPVGGAEGVEVPRSPVLLCKLDLDKRLSQEKQTSDSDSVGVGDNCSTLGRRETCDHGKGKKSSLAELKGSMSRAAGRKITRIIGFSKKKTLADDLQTSSTEEEVPCCGYLNVLVNQGWKERWCRLKCNTLYFHKDHMDLRTHVNAIALQGCEVAPGFGPRHPFAFRILRNRQEVAILEASCSEDMGRWLGLLLVEMGSRVTPEALHYDYVDVETLTSIVSAGRNSFLYARSCQNQWPEPRVYDDVPYEKMQDEEPERPTGAQVKRHASSCSEKSHRVDPQVKVKRHASSANQYKYGKNRAEEDARRYLVEKEKLEKEKETIRTELIALRQEKRELKEAIRSSPGAKLKALEEAVATLEAQCRAKEERRIDLELKLVAVKERLQQSLAGGPALGLSVSSKPKSGETANKPQNSVPEQPLPVNCVSELRKRSPSIVASNQGRVLQKAKEWEMKKT", "partner": "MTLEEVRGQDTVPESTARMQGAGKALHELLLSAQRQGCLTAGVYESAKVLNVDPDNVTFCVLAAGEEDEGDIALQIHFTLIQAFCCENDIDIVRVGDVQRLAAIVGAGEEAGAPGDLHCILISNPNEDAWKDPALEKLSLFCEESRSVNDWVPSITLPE"}, "B2": {"name": "DNA topoisomerase 3-beta-1 (Homo sapiens), O95985 (parent)", "chain": "MKTVLMVAEKPSLAQSIAKILSRGSLSSHKGLNGACSVHEYTGTFAGQPVRFKMTSVCGHVMTLDFLGKYNKWDKVDPAELFSQAPTEKKEANPKLNMVKFLQVEGRGCDYIVLWLDCDKEGENICFEVLDAVLPVMNKAHGGEKTVFRARFSSITDTDICNAMACLGEPDHNEALSVDARQELDLRIGCAFTRFQTKYFQGKYGDLDSSLISFGPCQTPTLGFCVERHDKIQSFKPETYWVLQAKVNTDKDRSLLLDWDRVRVFDREIAQMFLNMTKLEKEAQVEATSRKEKAKQRPLALNTVEMLRVASSSLGMGPQHAMQTAERLYTQGYISYPRTETTHYPENFDLKGSLRQQANHPYWADTVKRLLAEGINRPRKGHDAGDHPPITPMKSATEAELGGDAWRLYEYITRHFIATVSHDCKYLQSTISFRIGPELFTCSGKTVLSPGFTEVMPWQSVPLEESLPTCQRGDAFPVGEVKMLEKQTNPPDYLTEAELITLMEKHGIGTDASIPVHINNICQRNYVTVESGRRLKPTNLGIVLVHGYYKIDAELVLPTIRSAVEKQLNLIAQGKADYRQVLGHTLDVFKRKFHYFVDSIAGMDELMEVSFSPLAATGKPLSRCGKCHRFMKYIQAKPSRLHCSHCDETYTLPQNGTIKLYKELRCPLDDFELVLWSSGSRGKSYPLCPYCYNHPPFRDMKKGMGCNECTHPSCQHSLSMLGIGQCVECESGVLVLDPTSGPKWKVACNKCNVVAHCFENAHRVRVSADTCSVCEAALLDVDFNKAKSPLPGDETQHMGCVFCDPVFQELVELKHAASCHPMHRGGPGRRQGRGRGRARRPPGKPNPRRPKDKMSALAAYFV"}, "B3": {"name": "Syntaxin-binding protein 4 (Homo sapiens), Q6ZWJ1 (parent)", "chain": "MNKNTSTVVSPSLLEKDPAFQMITIAKETGLGLKVLGGINRNEGPLVYIQEIIPGGDCYKDGRLKPGDQLVSVNKESMIGVSFEEAKSIITGAKLRLESAWEIAFIRQKSDNIQPENLSCTSLIEASGEYGPQASTLSLFSSPPEILIPKTSSTPKTNNDILSSCEIKTGYNKTVQIPITSENSTVGLSNTDVASAWTENYGLQEKISLNPSVRFKAEKLEMALNYLGIQPTKEQHQALRQQVQADSKGTVSFGDFVQVARNLFCLQLDEVNVGAHEISNILDSQLLPCDSSEADEMERLKCERDDALKEVNTLKEKLLESDKQRKQLTEELQNVKQEAKAVVEETRALRSRIHLAEAAQRQAHGMEMDYEEVIRLLEAKITELKAQLADYSDQNKESVQDLKKRIMVLDCQLRKSEMARKTFEASTEKLLHFVEAIQEVFSDNSTPLSNLSERRAVLASQTSLTPLGRNGRSIPATLALESKELVKSVRALLDMDCLPYGWEEAYTADGIKYFINHVTQTTSWIHPVMSVLNLSRSEENEEDCSRELPNQKS", "partner": "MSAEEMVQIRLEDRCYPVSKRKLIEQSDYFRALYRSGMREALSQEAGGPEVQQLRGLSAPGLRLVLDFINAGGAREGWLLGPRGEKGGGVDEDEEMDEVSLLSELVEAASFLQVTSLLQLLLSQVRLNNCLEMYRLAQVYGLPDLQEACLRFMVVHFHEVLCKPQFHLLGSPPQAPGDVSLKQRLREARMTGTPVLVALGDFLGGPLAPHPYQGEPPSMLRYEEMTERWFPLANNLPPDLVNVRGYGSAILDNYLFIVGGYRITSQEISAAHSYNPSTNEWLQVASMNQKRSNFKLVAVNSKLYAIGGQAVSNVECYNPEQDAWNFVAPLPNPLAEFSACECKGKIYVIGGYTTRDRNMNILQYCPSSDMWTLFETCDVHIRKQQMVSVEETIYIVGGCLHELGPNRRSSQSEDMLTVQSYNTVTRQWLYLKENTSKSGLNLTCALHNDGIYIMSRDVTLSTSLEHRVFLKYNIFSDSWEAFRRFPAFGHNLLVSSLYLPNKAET"}, "B4": {"name": "CD2 antigen cytoplasmic tail-binding protein 2 (Homo sapiens), O95400 (parent)", "chain": "MPKRKVTFQGVGDEEDEDEIIVPKKKLVDPVAGSGGPGSRFKGKHSLDSDEEEDDDDGGSSKYDILASEDVEGQEAATLPSEGGVRITPFNLQEEMEEGHFDADGNYFLNRDAQIRDSWLDNIDWVKIRERPPGQRQASDSEEEDSLGQTSMSAQALLEGLLELLLPRETVAGALRRLGARGGGKGRKGPGQPSSPQRLDRLSGLADQMVARGNLGVYQETRERLAMRLKGLGCQTLGPHNPTPPPSLDMFAEELAEEELETPTPTQRGEAESRGDGLVDVMWEYKWENTGDAELYGPFTSAQMQTWVSEGYFPDGVYCRKLDPPGGQFYNSKRIDFDLYT"}, "B5": {"name": "Tuftelin-interacting protein 11 (Homo sapiens), Q9UBB9 (parent)", "chain": "MSLSHLYRDGEGRIDDDDDERENFEITDWDLQNEFNPNRQRHWQTKEEATYGVWAERDSDDERPSFGGKRARDYSAPVNFISAGLKKGAAEEAELEDSDDEEKPVKQDDFPKDFGPRKLKTGGNFKPSQKGFAGGTKSFMDFGSWERHTKGIGQKLLQKMGYVPGRGLGKNAQGIINPIEAKQRKGKGAVGAYGSERTTQSMQDFPVVDSEEEAEEEFQKELSQWRKDPSGSKKKPKYSYKTVEELKAKGRISKKLTAPQKELSQVKVIDMTGREQKVYYSYSQISHKHNVPDDGLPLQSQQLPQSGKEAKAPGFALPELEHNLQLLIDLTEQEIIQNDRQLQYERDMVVNLFHELEKMTEVLDHEERVISNLSKVLEMVEECERRMQPDCSNPLTLDECARIFETLQDKYYEEYRMSDRVDLAVAIVYPLMKEYFKEWDPLKDCTYGTEIISKWKSLLENDQLLSHGGQDLSADAFHRLIWEVWMPFVRNIVTQWQPRNCDPMVDFLDSWVHIIPVWILDNILDQLIFPKLQKEVENWNPLTDTVPIHSWIHPWLPLMQARLEPLYSPIRSKLSSALQKWHPSDSSAKLILQPWKDVFTPGSWEAFMVKNIVPKLGMCLGELVINPHQQHMDAFYWVIDWEGMISVSSLVGLLEKHFFPKWLQVLCSWLSNSPNYEEITKWYLGWKSMFSDQVLAHPSVKDKFNEALDIMNRAVSSNVGAYMQPGARENIAYLTHTERRKDFQYEAMQERREAENMAQRGIGVAASSVPMNFKDLIETKAEEHNIVFMPVIGKRHEGKQLYTFGRIVIYIDRGVVFVQGEKTWVPTSLQSLIDMAK", "partner": "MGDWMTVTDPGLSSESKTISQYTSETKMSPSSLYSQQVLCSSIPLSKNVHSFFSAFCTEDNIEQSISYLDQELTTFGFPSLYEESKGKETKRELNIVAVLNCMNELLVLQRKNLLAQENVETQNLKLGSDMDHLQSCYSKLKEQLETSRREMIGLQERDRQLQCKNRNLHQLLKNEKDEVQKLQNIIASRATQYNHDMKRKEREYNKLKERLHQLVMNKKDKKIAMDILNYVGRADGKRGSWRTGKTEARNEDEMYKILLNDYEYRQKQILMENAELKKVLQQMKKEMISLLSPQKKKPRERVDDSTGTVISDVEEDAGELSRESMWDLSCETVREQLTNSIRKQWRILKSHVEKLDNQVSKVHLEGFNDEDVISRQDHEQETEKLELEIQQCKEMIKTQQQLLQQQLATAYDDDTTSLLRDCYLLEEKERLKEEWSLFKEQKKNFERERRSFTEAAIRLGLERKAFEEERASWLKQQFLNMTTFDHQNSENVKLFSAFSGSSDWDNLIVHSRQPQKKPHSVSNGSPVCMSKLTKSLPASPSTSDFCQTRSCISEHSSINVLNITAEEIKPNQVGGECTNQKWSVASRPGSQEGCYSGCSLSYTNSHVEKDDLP"}},
  "data": [
    {"variants_of": "B1", "conditions": "with ga45g_human GADD45G", "values": [
      {"variant": "L406P", "effect of a mutation on the interaction": "with no effect"}
    ]},
    {"variants_of": "B2", "conditions": "with trim1_human MID2, Q9UJV3", "values": [
      {"variant": "R267W", "effect of a mutation on the interaction": "disrupting interaction strength"}
    ]},
    {"variants_of": "B2", "conditions": "with tri41_human TRIM41, Q8WV44", "values": [
      {"variant": "R267W", "effect of a mutation on the interaction": "disrupting interaction strength"}
    ]},
    {"variants_of": "B3", "conditions": "with klh42_human KLHL42, Q9P2K6", "values": [
      {"variant": "C120R", "effect of a mutation on the interaction": "with no effect"}
    ]},
    {"variants_of": "B4", "conditions": "with rsmb_human SNRPB", "values": [
      {"variant": "T262I", "effect of a mutation on the interaction": "with no effect"}
    ]},
    {"variants_of": "B5", "conditions": "with adip_human SSX2IP", "values": [
      {"variant": "R8Q", "effect of a mutation on the interaction": "with no effect"}
    ]}
  ]
}
